According to PMC6635019:
“And” between values parts separate entries of the source, which are not always exact repeats. Equal entries are not always repeated.

Experiments:
gramicidin A = experiment: native MS
LL-37 (human) = experiment: native MS

Row | stoichiometry N (gramicidin A) | Substance | stoichiometry N (LL-37 (human))
1 | 2 | gramicidin A (peptide) | 
2 |  | LL-37 (peptide) | 2 and 3 and 4
